Consider eleven molecules from patent US20220220224A1 (Hoffmann-La Roche, published 2022).

Experiment [1] deals with T1, recombinant biotinylated monomeric Fc fusion of murine Folate Receptor 1 (mu FolR1 ECD-AcTev-Fcknob-Avitag … (murine, UniProt P0DOX5 223-449 = IgG part, biotin on the C-terminal Avi tag)).
T1 construct: also called muFolR1-Fc; murine FolR1
Briefly: SPR ProteOn, Fab analyte on immobilized antigen-Fc. Here is the method: Immobilization of antigens (ligand): Recombinant antigens were diluted with PBST (10 mM phosphate, 150 mM sodium chloride pH 7.4, 0.005% Tween 20) to 10 μg/ml, then injected at 30 μl/minute in vertical orientation. Injection of analytes: For ‘one-shot kinetics’ measurements, injection direction was changed to horizontal orientation, two-fold dilution series of purified Fab (varying concentration ranges) were injected simultaneously along separate channels 1-5, with association times of 150 or 200 s, and dissociation times of 200 or 600 s, respectively. Buffer (PBST) was injected along the sixth channel to provide an “in-line” blank for referencing. Association rate constants (kₒₙ) and dissociation rate constants (koff) were calculated using a simple one-to-one Langmuir binding model in ProteOn Manager v3.1 software by simultaneously fitting the association and dissociation sensorgrams. The equilibrium dissociation constant (KD) was calculated as the ratio koff/kₒₙ.

Experiment [2] addresses T2, recombinant biotinylated monomeric Fc fusion of cynomolgus Folate Receptor 1 (cy FolR1 ECD-AcTev-Fcknob-Avi … (cynomolgus, UniProt P0DOX5 223-449 = IgG part, biotin on the C-terminal Avi tag)).
T2 construct: also called cyFolR1-Fc; cyno FolR1
The experiment in a line: SPR Biacore, avidity (bivalent, apparent KD), antigen-Fc on SA chip. Here is the method: (§1) Binding of FolR1 binders as IgG or in the T-cell bispecific format to different recombinant folate receptors (human FolR1, 2 and 3, murine FolR1 and cynomolgus FolR1; all as Fc fusions) was assessed by surface plasmon resonance (SPR). All SPR experiments were performed on a Biacore T200 at 25° C. with HBS-EP as running buffer (0.01 M HEPES pH 7.4, 0.15 M NaCl, 3 mM EDTA, 0.005% Surfactant P20, Biacore, Freiburg/Germany).
Recombinant biotinylated monomeric Fc fusions of human, cynomolgus and murine Folate Receptor 1 (FolR1-Fc) were directly coupled on a SA chip using the standard coupling instruction (Biacore, Freiburg/Germany). The immobilization level was about 300-400 RU. The anti-FolR1 IgGs or T cell bispecifics were passed at a concentration range from 2.1 to 500 nM with a flow of 30 μL/minutes through the flow cells over 180 seconds. The dissociation was monitored for 600 seconds. Bulk refractive index differences were corrected for by subtracting the response obtained on reference flow cell immobilized with recombinant biotinylated IL2 receptor Fc fusion. […] The binding curves resulting from the bivalent binding of the IgGs or T cell bispecifics were approximated to a 1:1 Langmuir binding and fitted with that model (which is not correct, but gives an idea of the avidity). The apparent avidity constants for the interactions were derived from the rate constants of the fitting using the Bia Evaluation software (GE Healthcare).

The target in experiment [3] is T2, recombinant biotinylated monomeric Fc …. Briefly: SPR Biacore, affinity (monovalent), antibody captured via anti-Fab. Here is the method:
as §1
For affinity measurement, direct coupling of around 6000-7000 resonance units (RU) of the anti-human Fab specific antibody (Fab capture kit, GE Healthcare) was performed on a CM5 chip at pH 5.0 using the standard amine coupling kit (GE Healthcare). Anti-FolR1 IgGs or T cell bispecifics were captured at 20 nM with a flow rate of 10 μl/min for 20 or 40 sec, the reference flow cell was left without capture. Dilution series (6.17 to 500 nM or 12.35 to 3000 nM) of human or cyno Folate Receptor 1 Fc fusion were passed on all flow cells at 30 μl/min for 120 or 240 sec to record the association phase. The dissociation phase was monitored for 240 s and triggered by switching from the sample solution to HBS-EP. The chip surface was regenerated after every cycle using a double injection of 60 sec 10 mM Glycine-HCl pH 2.1 or pH 1.5. Bulk refractive index differences were corrected for by subtracting the response obtained on the reference flow cell 1. The affinity constants for the interactions were derived from the rate constants by fitting to a 1:1 Langmuir binding using the Bia Evaluation software (GE Healthcare).
On the technique in general: SPR reads the build-up and loss of mass on a sensor chip optically.

Experiment [4] addresses T3, recombinant biotinylated monomeric Fc fusion of human Folate Receptor 2 (hu FolR2 ECD-AcTev-Fcknob-Avi tag … (human, UniProt P0DOX5 223-449 = IgG part, biotin on the C-terminal Avi tag)).
T3 construct: also called FolR2-Fc
Briefly: SPR ProteOn, Fab analyte on immobilized antigen-Fc. Here is the method:
(§2) Immobilization of antigens (ligand): Recombinant antigens were diluted with PBST (10 mM phosphate, 150 mM sodium chloride pH 7.4, 0.005% Tween 20) to 10 μg/ml, then injected at 30 μl/minute in vertical orientation. Injection of analytes: For ‘one-shot kinetics’ measurements, injection direction was changed to horizontal orientation, two-fold dilution series of purified Fab (varying concentration ranges) were injected simultaneously along separate channels 1-5, with association times of 200 s, and dissociation times of 600 s. Buffer (PBST) was injected along the sixth channel to provide an “in-line” blank for referencing. Association rate constants (kₒₙ) and dissociation rate constants (koff) were calculated using a simple one-to-one Langmuir binding model in ProteOn Manager v3.1 software by simultaneously fitting the association and dissociation sensorgrams. The equilibrium dissociation constant (KD) was calculated as the ratio koff/kₒₙ.

Experiment [5] concerns the target T4, recombinant biotinylated monomeric Fc fusion of human Folate Receptor 3 (hu FolR3 ECD-AcTev-Fcknob-Avi tag … (human, UniProt P0DOX5 223-449 = IgG part, biotin on the C-terminal Avi tag)).
T4 construct: also called FolR3-Fc
The experiment in a line: SPR ProteOn, Fab analyte on immobilized antigen-Fc. Here is the method:
as §2

Experiment [6] addresses T5, recombinant biotinylated monomeric Fc fusion of human Folate Receptor 1 (huFolR1 ECD-AcTev-Fcknob-Avi tag … (human, UniProt P0DOX5 223-449 = IgG part, biotin on the C-terminal Avi tag)).
T5 construct: also called huFolR1-Fc; human FolR1-Fc
The experiment in a line: SPR ProteOn, Fab analyte on immobilized antigen-Fc. Here is the method: as §2

Experiment [7] addresses T1, recombinant biotinylated monomeric Fc …. Briefly: SPR ProteOn, Fab analyte on immobilized antigen-Fc. Here is the method:
as §2
This is another data set of the same source.

For experiment [8], the target named is T2, recombinant biotinylated monomeric Fc …. Briefly: SPR ProteOn, Fab analyte on immobilized antigen-Fc. Here is the method: as §2
Experiment [9] has as its target T3, recombinant biotinylated monomeric Fc …. The experiment in a line: SPR Biacore, single injection on immobilized antigen-Fc. Here is the method: as §1
(§3) First the anti-FolR1 IgGs were analyzed by single injections (Table 1) to characterize their crossreactivity (to human, murine and cyno FolR1) and specificity (to human FolR1, human FolR2, human FolR3). Recombinant biotinylated monomeric Fc fusions of human, cynomolgus and murine Folate Receptor 1 (FolR1-Fc) or human Folate Receptor 2 and 3 (FolR2-Fc, FolR3-Fc) were directly coupled on a SA chip using the standard coupling instruction (Biacore, Freiburg/Germany). The immobilization level was about 300-400 RU. The IgGs were injected for 60 seconds at a concentration of 500 nM.

Experiment [10] deals with T4, recombinant biotinylated monomeric Fc …. Described as above. Here is the method:
as §1, §3

Experiment [11] deals with T1, recombinant biotinylated monomeric Fc …. Described as above. Here is the method:
as §1, §3

Experiment [12] has as its target T6, human FolR2 on transfected HEK cells (human, UniProt P14207 17-230).
T6 construct: whole, on cells
The experiment in a line: flow cytometry on transfected HEK cells.

Changes are numbered by the printed parent chain.

T6 sequence (P14207 17-230): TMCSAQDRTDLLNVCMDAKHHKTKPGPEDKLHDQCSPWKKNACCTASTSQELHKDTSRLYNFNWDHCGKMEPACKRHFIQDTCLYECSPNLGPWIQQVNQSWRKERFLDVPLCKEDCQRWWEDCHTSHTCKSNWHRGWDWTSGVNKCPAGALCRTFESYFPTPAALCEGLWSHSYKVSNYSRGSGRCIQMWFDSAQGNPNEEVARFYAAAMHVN

B1: 11F8 Fab (Fab, V domains shown)
VH: QVQLVQSGAEVKKPGSSVKVSCKASGGTFSSYAISWVRQAPGQGLEWMGGIIPIFGTANYAQKFQGRVTITADKSTSTAYMELSSLRSEDTAVYYCARAVFYRAWYSFDYWGQGTTVTVSS
VL: DIQMTQSPSTLSASVGDRVTITCRASQSISSWLAWYQQKPGKAPKLLIYDASSLESGVPSRFSGSGSGTEFTLTISSLQPDDFATYYCQQYTSPPPTFGQGTKVEIK
notes: bacterial Fab
With B1, in experiment [1], the Kd came out at 1200 nM.

B2: Farletuzumab (antibody, V domains shown)
VH: EVQLVESGGGVVQPGRSLRLSCSASGFTFSGYGLSWVRQAPGKGLEWVAMISSGGSYTYYADSVKGRFAISRDNAKNTLFLQMDSLRPEDTGVYFCARHGDDPAWFAYWGQGTPVTVSS
VL: DIQLTQSPSSLSASVGDRVTITCSVSSSISSNNLHWYQQKPGKAPKPWIYGTSNLASGVPSRFSGSGSGTDYTFTISSLQPEDIATYYCQQWSSYPYMYTFGQGTKVEIKR
For the molecule B2, the Kd in experiment [2] stood at 0.65 nM; in experiment [3] it was 67.3 nM.

B3: 5D9 Fab (Fab, V domains shown)
VH: QVQLVQSGAEVKKPGASVKVSCKASGYTFTSYYMHWVRQAPGQGLEWMGIINPSGGSTSYAQKFQGRVTMTRDTSTSTVYMELSSLRSEDTAVYYCARSYIDMDYWGQGTLVTVSS
VL: EIVLTQSPGTLSLSPGERATLSCRASQSVSSSYLAWYQQKPGQAPRLLIYGASSRATGIPDRFSGSGSGTDFTLTISRLEPEDFAVYYCQQDNWSPTFGQGTKVEIK
notes: bacterial Fab
B3: the binding result in [1] is “no binding”.

B4: 6B6 Fab (Fab, V domains shown)
VH: B3 VH with I101V
VL: B3 VL with N93I
notes: bacterial Fab
Take B4: the binding result in experiment [1] is “no binding”.

B5: 15B6 Fab (Fab, V domains shown)
VH: QVQLVQSGAEVKKPGASVKVSCKASGYTFTSYYMHWVRQAPGQGLEWMGIINPSGGSTSYAQKFQGRVTMTRDTSTSTVYMELSSLRSEDTAVYYCARNYYIGIVPFDYWGQGTLVTVSS
VL: QAVVTQEPSLTVSPGGTVTLTCGSSTGAVTTSNYANWVQEKPGQAFRGLIGGTNKRAPGTPARFSGSLLGGKAALTLSGAQPEDEAEYYCALWYSNLWVFGGGTKLTVL
notes: bacterial Fab
For B5, the binding result in experiment [4], in experiment [5] and in experiment [7] was “no binding” each time. The values for the Kd in experiment [6] and in experiment [8] were 19.1 nM and 13.9 nM, respectively.

B6: 16D5 Fab (Fab, V domains shown)
VH: not shown
VL: B5 VL
notes: bacterial Fab
In the case of B6, the binding result in [4], in experiment [5] and in [7] was “no binding” in each case.

B7: 16D5 IgG (antibody, V domains shown)
VH: not shown
VL: B5 VL
notes: human IgG1
Consider B7, for which the binding result is recorded as “no binding (tested: 500 nM)” in experiment [9], “no binding (tested: 500 nM)” in experiment [10], “no binding (tested: 500 nM)” in experiment [11] and “no binding” in [12].

B8: 21A5 Fab (Fab, V domains shown)
VH: not shown
VL: B5 VL
notes: bacterial Fab
Regarding B8, the binding result in experiment [4] and in experiment [7] was “no binding” throughout.

B9: 16F12 Fab (Fab, V domains shown)
VH: B5 VH with Y100F, Y101T, I102V, G103L, I104R
VL: B5 VL
notes: bacterial Fab
B9: the binding result in [4], in experiment [5] and in [7] was “no binding” each time. Further, the Kd worked out at 68 nM in [6] and 90.9 nM in experiment [8].

B10: 21G8 Fab (Fab, V domains shown)
VH: not shown
VL: B5 VL
notes: bacterial Fab
For B10, the binding result in experiment [7] is listed as “no binding”.

B11: 21A5 IgG (antibody, V domains shown)
VH: not shown
VL: B5 VL
notes: human IgG1
Regarding B11, the figures for the binding result in experiment [9], in experiment [11] and in experiment [12] were “no binding (tested: 500 nM)”, “no binding (tested: 500 nM)” and “no binding”, respectively.
